Square brackets hold non-standard residues; d marks the D form. Primed or numbered codes have the meaning given here. Phe(2,6-Me2,4-CONH2) = Cc1cc(C(N)=O)cc(C)c1C[C@H](N)C(=O)O; Phe(3,4-(OMe)2) = COc1ccc(C[C@H](N)C(=O)O)cc1OC; Phe(3,4-Cl2) = N[C@@H](Cc1ccc(Cl)c(Cl)c1)C(=O)O; Trp(5-OH) = N[C@@H](Cc1c[nH]c2ccc(O)cc12)C(=O)O; Phe(4-COOH) = N[C@@H](Cc1ccc(C(=O)O)cc1)C(=O)O; Phe(4-tBu) = CC(C)(C)c1ccc(C[C@H](N)C(=O)O)cc1; Dip = N[C@H](C(=O)O)C(c1ccccc1)c1ccccc1; Phe(4-F) = N[C@@H](Cc1ccc(F)cc1)C(=O)O; Dmt = Cc1cc(O)cc(C)c1C[C@H](N)C(=O)O; NMeR = CN[C@@H](CCCNC(=N)N)C(=O)O; dNMeF = CN[C@H](Cc1ccccc1)C(=O)O; hPhe = N[C@@H](CCc1ccccc1)C(=O)O; αMeF = C[C@](N)(Cc1ccccc1)C(=O)O; Tic = O=C(O)[C@@H]1Cc2ccccc2CN1; β3hF = N[C@H](CC(=O)O)Cc1ccccc1; N(octyl)Gly = CCCCCCCCNCC(=O)O; Tic(7-OH)′ = not defined here; Nle = CCCC[C@H](N)C(=O)O; THP = not defined here; Aib = CC(C)(N)C(=O)O; βAla = NCCC(=O)O; Sar = CNCC(=O)O
B1: H-DMT-a-Val-bhF-Sar-NH2 (peptide)
peptide: H-[Dmt][dA]V[β3hF][Sar]-NH2
SMILES: Cc1cc(O)cc(C)c1C[C@H](N)C(=O)N[C@H](C)C(=O)N[C@H](C(=O)N[C@H](CC(=O)N(C)CC(N)=O)Cc1ccccc1)C(C)C
B2: H-Phe(DMC)-Aib-G-bhF-Sar-NH2 (peptide)
peptide: H-[Phe(2,6-Me2,4-CONH2)][Aib]G[β3hF][Sar]-NH2
SMILES: Cc1cc(C(N)=O)cc(C)c1C[C@H](N)C(=O)NC(C)(C)C(=O)NCC(=O)N[C@H](CC(=O)N(C)CC(N)=O)Cc1ccccc1
B3: H-Phe(DMC)-(D)Asp-G-bhF-Sar-NH2 (peptide)
peptide: H-[Phe(2,6-Me2,4-CONH2)][dD]G[β3hF][Sar]-NH2
SMILES: Cc1cc(C(N)=O)cc(C)c1C[C@H](N)C(=O)N[C@H](CC(=O)O)C(=O)NCC(=O)N[C@H](CC(=O)N(C)CC(N)=O)Cc1ccccc1
B4: H-Phe(DMC)-N(Me)Arg-G-bhF-Sar-NH2 (peptide)
peptide: H-[Phe(2,6-Me2,4-CONH2)][NMeR]G[β3hF][Sar]-NH2
SMILES: Cc1cc(C(N)=O)cc(C)c1C[C@H](N)C(=O)N(C)[C@@H](CCCNC(=N)N)C(=O)NCC(=O)N[C@H](CC(=O)N(C)CC(N)=O)Cc1ccccc1
B5: H-DMT-N(Me)Arg-G-bhF-Sar-NH2 (peptide)
peptide: H-[Dmt][NMeR]G[β3hF][Sar]-NH2
SMILES: Cc1cc(O)cc(C)c1C[C@H](N)C(=O)N(C)[C@@H](CCCNC(=N)N)C(=O)NCC(=O)N[C@H](CC(=O)N(C)CC(N)=O)Cc1ccccc1
B6: H-Phe(DMC)-a-G-bhF-Gly-NH2 (peptide)
peptide: H-[Phe(2,6-Me2,4-CONH2)][dA]G[β3hF]G-NH2
SMILES: Cc1cc(C(N)=O)cc(C)c1C[C@H](N)C(=O)N[C@H](C)C(=O)NCC(=O)N[C@H](CC(=O)NCC(N)=O)Cc1ccccc1
B7: H-DMT-r-F-(D)N(Me)Phe-NH2 (peptide)
peptide: H-[Dmt][dR]F[dNMeF]-NH2
SMILES: Cc1cc(O)cc(C)c1C[C@H](N)C(=O)N[C@H](CCCNC(=N)N)C(=O)N[C@@H](Cc1ccccc1)C(=O)N(C)[C@H](Cc1ccccc1)C(N)=O
B8: H-DMT-r-F-alpha-MePhe-NH2 (peptide)
peptide: H-[Dmt][dR]F[αMeF]-NH2
SMILES: Cc1cc(O)cc(C)c1C[C@H](N)C(=O)N[C@H](CCCNC(=N)N)C(=O)N[C@@H](Cc1ccccc1)C(=O)N[C@@](C)(Cc1ccccc1)C(N)=O
B9: H-DMT-r-F-Phe(3,4-diOMe)-NH2 (peptide)
peptide: H-[Dmt][dR]F[Phe(3,4-(OMe)2)]-NH2
SMILES: COc1ccc(C[C@H](NC(=O)[C@H](Cc2ccccc2)NC(=O)[C@@H](CCCNC(=N)N)NC(=O)[C@@H](N)Cc2c(C)cc(O)cc2C)C(N)=O)cc1OC
B10: H-DMT-r-F-HomoPhe-NH2 (peptide)
peptide: H-[Dmt][dR]F[hPhe]-NH2
SMILES: Cc1cc(O)cc(C)c1C[C@H](N)C(=O)N[C@H](CCCNC(=N)N)C(=O)N[C@@H](Cc1ccccc1)C(=O)N[C@@H](CCc1ccccc1)C(N)=O
B11: H-DMT-r-Tic-Sar-NH2 (peptide)
peptide: H-[Dmt][dR][Tic][Sar]-NH2
SMILES: Cc1cc(O)cc(C)c1C[C@H](N)C(=O)N[C@H](CCCNC(=N)N)C(=O)N1Cc2ccccc2C[C@H]1C(=O)N(C)CC(N)=O
B12: H-DMT-r-Phe(3,4-diCl)-Sar-NH2 (peptide)
peptide: H-[Dmt][dR][Phe(3,4-Cl2)][Sar]-NH2
SMILES: Cc1cc(O)cc(C)c1C[C@H](N)C(=O)N[C@H](CCCNC(=N)N)C(=O)N[C@@H](Cc1ccc(Cl)c(Cl)c1)C(=O)N(C)CC(N)=O
B13: H-DMT-r-4-tBu-Phe-Sar-NH2 (peptide)
peptide: H-[Dmt][dR][Phe(4-tBu)][Sar]-NH2
SMILES: Cc1cc(O)cc(C)c1C[C@H](N)C(=O)N[C@H](CCCNC(=N)N)C(=O)N[C@@H](Cc1ccc(C(C)(C)C)cc1)C(=O)N(C)CC(N)=O
B14: H-DMT-r-Phe(3,4-diOMe)-Sar-NH2 (peptide)
peptide: H-[Dmt][dR][Phe(3,4-(OMe)2)][Sar]-NH2
SMILES: COc1ccc(C[C@H](NC(=O)[C@@H](CCCNC(=N)N)NC(=O)[C@@H](N)Cc2c(C)cc(O)cc2C)C(=O)N(C)CC(N)=O)cc1OC
B15: H-DMT-r-DPA-Sar-NH2 (Seq. ID 26) (peptide)
peptide: H-[Dmt][dR][Dip][Sar]-NH2
SMILES: Cc1cc(O)cc(C)c1C[C@H](N)C(=O)N[C@H](CCCNC(=N)N)C(=O)N[C@H](C(=O)N(C)CC(N)=O)C(c1ccccc1)c1ccccc1
B16: H-DMT-r-F-Octyl Gly-NH2 (peptide)
peptide: H-[Dmt][dR]F[N(octyl)Gly]-NH2
SMILES: CCCCCCCCN(CC(N)=O)C(=O)[C@H](Cc1ccccc1)NC(=O)[C@@H](CCCNC(=N)N)NC(=O)[C@@H](N)Cc1c(C)cc(O)cc1C
B17: H-DMT-r-F-Nle-NH2 (peptide)
peptide: H-[Dmt][dR]F[Nle]-NH2
SMILES: CCCC[C@H](NC(=O)[C@H](Cc1ccccc1)NC(=O)[C@@H](CCCNC(=N)N)NC(=O)[C@@H](N)Cc1c(C)cc(O)cc1C)C(N)=O
B18: H-DMT-r-F-L-NH2 (peptide)
peptide: H-[Dmt][dR]FL-NH2
SMILES: Cc1cc(O)cc(C)c1C[C@H](N)C(=O)N[C@H](CCCNC(=N)N)C(=O)N[C@@H](Cc1ccccc1)C(=O)N[C@@H](CC(C)C)C(N)=O
B19: H-DMT-r-F-V-NH2 (peptide)
peptide: H-[Dmt][dR]FV-NH2
SMILES: Cc1cc(O)cc(C)c1C[C@H](N)C(=O)N[C@H](CCCNC(=N)N)C(=O)N[C@@H](Cc1ccccc1)C(=O)N[C@H](C(N)=O)C(C)C
B20: H-DMT-r-W-Nle-NH2 (peptide)
peptide: H-[Dmt][dR]W[Nle]-NH2
SMILES: CCCC[C@H](NC(=O)[C@H](Cc1c[nH]c2ccccc12)NC(=O)[C@@H](CCCNC(=N)N)NC(=O)[C@@H](N)Cc1c(C)cc(O)cc1C)C(N)=O
B21: H-DMT-r-DPA-Sar-NH2 (Seq. ID 32) (peptide)
peptide: H-[Dmt][dR][Dip][Sar]-NH2
SMILES: Cc1cc(O)cc(C)c1C[C@H](N)C(=O)N[C@H](CCCNC(=N)N)C(=O)N[C@H](C(=O)N(C)CC(N)=O)C(c1ccccc1)c1ccccc1
B22: H-DMT-r-G-DPA-NH2 (peptide)
peptide: H-[Dmt][dR]G[Dip]-NH2
SMILES: Cc1cc(O)cc(C)c1C[C@H](N)C(=O)N[C@H](CCCNC(=N)N)C(=O)NCC(=O)N[C@H](C(N)=O)C(c1ccccc1)c1ccccc1
B23: H-DMT-r-G-W-NH2 (peptide)
peptide: H-[Dmt][dR]GW-NH2
SMILES: Cc1cc(O)cc(C)c1C[C@H](N)C(=O)N[C@H](CCCNC(=N)N)C(=O)NCC(=O)N[C@@H](Cc1c[nH]c2ccccc12)C(N)=O
B24: H-DMT-r-Sar-W-NH2 (peptide)
peptide: H-[Dmt][dR][Sar]W-NH2
SMILES: Cc1cc(O)cc(C)c1C[C@H](N)C(=O)N[C@H](CCCNC(=N)N)C(=O)N(C)CC(=O)N[C@@H](Cc1c[nH]c2ccccc12)C(N)=O
B25: H-DMT-r-F-DPA-NH2 (peptide)
peptide: H-[Dmt][dR]F[Dip]-NH2
SMILES: Cc1cc(O)cc(C)c1C[C@H](N)C(=O)N[C@H](CCCNC(=N)N)C(=O)N[C@@H](Cc1ccccc1)C(=O)N[C@H](C(N)=O)C(c1ccccc1)c1ccccc1

Target: δ-opioid receptor (DOR), Human-ORPD1 (human, UniProt P41143 1-372)
Experiment: cell-based or functional assay

Sequence of δ-opioid receptor (DOR), Human-ORPD1 (P41143 whole entry, stated change not applied): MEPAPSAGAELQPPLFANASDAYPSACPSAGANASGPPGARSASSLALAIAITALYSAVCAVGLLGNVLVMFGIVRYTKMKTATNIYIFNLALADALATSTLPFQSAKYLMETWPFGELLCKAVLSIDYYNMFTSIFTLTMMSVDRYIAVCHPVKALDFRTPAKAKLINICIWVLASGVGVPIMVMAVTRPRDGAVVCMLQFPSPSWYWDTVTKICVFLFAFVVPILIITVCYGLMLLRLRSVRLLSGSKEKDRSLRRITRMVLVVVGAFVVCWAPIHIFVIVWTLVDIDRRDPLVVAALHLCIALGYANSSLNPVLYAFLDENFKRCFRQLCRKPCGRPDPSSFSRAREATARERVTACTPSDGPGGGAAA

Binder	DOR EC50 [nM]
H-[Trp(5-OH)][dA]G[β3hF][Sar]-NH2 [H-Trp(5-OH)-a-G-bhF-Sar-NH2]	≤ 200
H-[Dmt][dA][THP][β3hF][Sar]-NH2 (reading uncertain; also: printed as H-DMT-a-THP-bhF-Sar-NH2) [H-DMT-a-THP-bhF-Sar-NH2]	≤ 200
B1	≤ 200
H-[Dmt][dA][βAla][β3hF][Sar]-NH2 [H-DMT-a-bAla-bhF-Sar-NH2]	≤ 200
B2	≤ 50
B3	≤ 1
B4	≤ 200
H-[Phe(2,6-Me2,4-CONH2)]AG[β3hF][Sar]-OH [H-Phe(DMC)-A-G-bhF-Sar-OH]	≤ 200
H-[Phe(4-COOH)][dA]G[β3hF][Sar]-NH2 [H-Phe(4-COOH)-a-G-bhF-Sar-NH2]	≤ 200
B5	≤ 200
B6	≤ 10
H-[Phe(4-tetrazolyl)][dA]G[β3hF][Sar]-NH2 [H-Phe(4-tetrazolyl)-a-G-bhF-Sar-NH2]	≤ 200
H-[Phe(2,6-Me2,4-CONH2)][dA]G[Tic][Sar]-NH2 [H-Phe(DMC)-a-G-Tic-Sar-NH2]	≤ 50
B7	≤ 50
B8	≤ 10
H-[Dmt][dR]F[Phe(4-F)]-NH2 [H-DMT-r-F-Phe(4-F)-NH2]	≤ 50
B9	≤ 10
B10	≤ 10
B11	> 200

Binder	DOR EC50 [nM]
B12	≤ 50
H-[Dmt][dR][BIP][Sar]-NH2 [H-DMT-r-BIP-Sar-NH2]	≤ 1
B13	> 200
B14	> 200
B15	> 200
B16	≤ 200
B17	≤ 50
B18	≤ 50
B19	≤ 10
B20	≤ 50
B21	> 200
B22	> 200
B23	≤ 50
B24	> 200
B25	≤ 50
H-[Phe(3-OH)][dA]G[β3hF][Sar]-NH2 [H-meta-Tyr-a-G-bhF-Sar-NH2]	> 200
H-[Phe(4-NHCOCH3)][dA]G[β3hF][Sar]-NH2 [H-Phe(4-NHCOCH3)-a-G-bhF-Sar-NH2]	≤ 200
H-[Tic(7-OH)′][dA]G[β3hF][Sar]-NH2 [H-Tic(7-OH)-a-G-bhF-Sar-NH2]	≤ 50
